Among the data in publication PMC8866485, “Cell surface nucleolin is a novel ADAMTS5 receptor mediating endothelial cell apoptosis” (Cell Death & Disease, 2022) are Kd values, retold here.

For test [1], the target named is T1, Recombinant human NCL (FLAG-tagged, full length) (human, UniProt P19338 1-710).
T1 construct: Nucleolin (NCL), human, full length; also called rhNCL; recombinant NCL; source: bought: OriGene (TP319082)
Put plainly: SPR; Biacore T200, CM5 chip; recombinant NCL captured by amine-coupled anti-NCL antibody; TS5-p45 as analyte, five dilutions, single-cycle kinetics; 25 C; HBST (10 mM HEPES, 150 mM NaCl, 50 uM EDTA, pH 7.4, 0.05% Tween-20); 1:1 model. The settings on record: both partners purified.

Test [2] addresses T2, FLAG-tagged full-length NCL (NCL-FL 1-710) (UniProt P19338 1-710).
T2 construct: Nucleolin (NCL), residues 1-710, in pCMV-Tag2; the length of 710 residues fits human nucleolin; source: HEK293T, transiently transfected, in whole cell lysate; not shown: FLAG, N-terminal, kept
Description: ELISA; saturation binding: FLAG-NCL-FL from HEK293T whole cell lysate captured on anti-FLAG antibody-coated plate; TS5-p45 titrated, 4 C overnight; anti-His detection. The following applies: one partner purified.

T2 sequence (P19338 whole entry, the tested form may be a part): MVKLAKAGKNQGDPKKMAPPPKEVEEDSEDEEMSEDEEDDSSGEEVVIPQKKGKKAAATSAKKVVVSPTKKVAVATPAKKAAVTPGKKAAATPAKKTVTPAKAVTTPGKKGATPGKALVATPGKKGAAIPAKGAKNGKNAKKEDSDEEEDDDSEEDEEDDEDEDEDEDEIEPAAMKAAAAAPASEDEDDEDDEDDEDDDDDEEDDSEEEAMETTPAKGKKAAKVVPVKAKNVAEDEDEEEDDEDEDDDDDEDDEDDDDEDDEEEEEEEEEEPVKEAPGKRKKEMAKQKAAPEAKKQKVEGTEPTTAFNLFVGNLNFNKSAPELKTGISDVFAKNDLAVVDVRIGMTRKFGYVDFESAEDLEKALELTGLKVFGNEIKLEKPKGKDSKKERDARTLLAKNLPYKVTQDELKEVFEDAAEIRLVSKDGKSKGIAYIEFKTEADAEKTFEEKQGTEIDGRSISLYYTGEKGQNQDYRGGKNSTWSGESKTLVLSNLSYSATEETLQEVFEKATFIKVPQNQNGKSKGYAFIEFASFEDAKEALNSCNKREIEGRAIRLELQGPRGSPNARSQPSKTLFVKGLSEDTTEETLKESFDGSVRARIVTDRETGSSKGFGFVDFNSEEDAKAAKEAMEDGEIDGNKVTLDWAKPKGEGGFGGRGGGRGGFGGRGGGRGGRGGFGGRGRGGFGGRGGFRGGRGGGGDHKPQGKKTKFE
T1 sequence (P19338 whole entry): as the sequence (P19338 whole entry, the tested form may be a part) above

B1: Recombinant human TS5-p45 (C-terminal His-tagged, Ser262-Pro622 truncate of ADAMTS5) (domain or fragment, UniProt Q9UNA0 262-622, looked up)
chain: SISRARQVELLLVADASMARLYGRGLQHYLLTLASIANRLYSHASIENHIRLAVVKVVVLGDKDKSLEVSKNAATTLKNFCKWQHQHNQLGDDHEEHYDAAILFTREDLCGHHSCDTLGMADVGTICSPERSCAVIEDDGLHAAFTVAHEIGHLLGLSHDDSKFCEETFGSTEDKRLMSSILTSIDASKPWSKCTSATITEFLDDGHGNCLLDLPRKQILGPEELPGQTYDATQQCNLTFGPEYSVCPGMDVCARLWCAVVRQGQMVCLTKKLPAVEGTPCGKGRICLQGKCVDKTKKKYYSTSSHGNWGSWGSWGQCSRSCGGGVQFAYRHCNNPAPRNNGRYCTGKRAIYRSCSLMPCP
notes: ADAMTS5 (A Disintegrin and Metalloproteinase with Thrombospondin Motifs 5, aggrecanase-2), human, residues Ser262-Pro622; also called 45 kDa truncate of ADAMTS5; source: bought: R&D Systems (2198-AD-01M); not shown: His tag, C-terminal, kept
A word on the Kd: it is a measure of binding affinity in units of concentration. With B1, the dissociation constant (Kd) in test [1] was about 28 nM; in test [2], about 26 nM.
